# Laboratory results: article PMC6999906 (PLoS ONE, 2020)
# Assays:
# [1] = molecular target: Mtb ThyX (thymidylate synthase ThyX) (Mycobacterium tuberculosis, UniProt P9WG57); experiment: […]; also NADPH oxidase assay (IC50 about […]); assay type: biochemical
# [2] = system: NC(=O)C1=CN([C@@H]2O[C@H](COP(=O)(O)OP(=O)(O)OC[C@H]3O[C@@H](n4cnc5c(N)ncnc54)[C@H](OP(=O)(O)O)[C@@H]3O)[C@@H](O)[C@H]2O)C=CC1; experiment: purified protein; details: FAD
# [3] = system: O=c1ccn([C@H]2C[C@H](O)[C@@H](COP(=O)(O)O)O2)c(=O)[nH]1; experiment: purified protein; details: FAD
# [4] = system: Nc1nc2c(c(=O)[nH]1)N1CN(c3ccc(C(=O)N[C@@H](CCC(=O)O)C(=O)O)cc3)C[C@H]1CN2; experiment: purified protein; details: FAD
# Mtb ThyX (thymidylate synthase ThyX), sequence (P9WG57 whole entry): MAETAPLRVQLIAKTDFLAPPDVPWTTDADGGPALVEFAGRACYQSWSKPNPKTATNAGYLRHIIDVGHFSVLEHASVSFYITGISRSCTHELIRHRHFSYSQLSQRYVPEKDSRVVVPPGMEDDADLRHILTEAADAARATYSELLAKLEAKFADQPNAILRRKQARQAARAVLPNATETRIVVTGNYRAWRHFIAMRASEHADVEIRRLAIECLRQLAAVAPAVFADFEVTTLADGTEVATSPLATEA
Compound,Ki [1] [µM],Km [2] [µM],Vmax [2] [µmol/min/mg],Km [3] [µM],Vmax [3] [µmol/min/mg],Km [4] [µM],Vmax [4] [µmol/min/mg]
"CC1=CC(=O)c2c(O)cccc2C1=O [plumbagin, 5-hydroxy-2-methyl-1,4-naphthoquinone]",8.21,–,–,–,–,–,–
Mtb ThyX (thymidylate synthase ThyX) (Mycobacterium tuberculosis H37Rv),–,35.22,0.00323,3.526 ± 0.68,0.00695,6.467,0.00228
